Measurements as given in EP1496124A1 (Oklahoma Medical Research Foundation, dated 2005).
Ends that are not written are not given here.

Columns and labels:
recombinant memapsin 2 [1] = target: T1, recombinant memapsin 2 (human, UniProt P56817 14-454, limits assumed); assay: enzyme inhibition with a synthetic fluorogenic peptide substrate
T1 construct: also called M2; beta-secretase

[2] = target: M2pd (modified M2 containing amino acids from Ala-8P to Ala326) (human) (UniProt P56817); assay: cell-based or functional assay
Chain of M2pd (modified M2 containing amino acids from Ala-8P to Ala326) (human) (P56817 22-501 limits assumed): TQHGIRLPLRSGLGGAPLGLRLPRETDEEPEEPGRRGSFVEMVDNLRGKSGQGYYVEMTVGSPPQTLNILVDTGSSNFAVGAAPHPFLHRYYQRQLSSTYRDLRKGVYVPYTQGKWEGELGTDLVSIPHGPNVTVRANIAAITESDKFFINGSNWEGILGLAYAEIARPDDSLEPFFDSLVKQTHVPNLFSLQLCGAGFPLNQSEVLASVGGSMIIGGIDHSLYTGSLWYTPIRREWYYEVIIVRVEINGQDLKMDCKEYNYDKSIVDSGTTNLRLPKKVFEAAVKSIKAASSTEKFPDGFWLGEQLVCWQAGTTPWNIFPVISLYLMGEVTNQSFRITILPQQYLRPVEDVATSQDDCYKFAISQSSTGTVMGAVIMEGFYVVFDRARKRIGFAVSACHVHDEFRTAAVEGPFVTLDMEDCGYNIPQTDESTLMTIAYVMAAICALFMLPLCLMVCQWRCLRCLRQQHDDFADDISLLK

recombinant memapsin 2 [3] = target: T1, recombinant memapsin 2; assay: Ki as stated in the crystallisation example; assay not described there
recombinant memapsin 2 [4] = target: T1, recombinant memapsin 2; assay: comparison of inhibition constants

T1 sequence (P56817 14-454 limits assumed): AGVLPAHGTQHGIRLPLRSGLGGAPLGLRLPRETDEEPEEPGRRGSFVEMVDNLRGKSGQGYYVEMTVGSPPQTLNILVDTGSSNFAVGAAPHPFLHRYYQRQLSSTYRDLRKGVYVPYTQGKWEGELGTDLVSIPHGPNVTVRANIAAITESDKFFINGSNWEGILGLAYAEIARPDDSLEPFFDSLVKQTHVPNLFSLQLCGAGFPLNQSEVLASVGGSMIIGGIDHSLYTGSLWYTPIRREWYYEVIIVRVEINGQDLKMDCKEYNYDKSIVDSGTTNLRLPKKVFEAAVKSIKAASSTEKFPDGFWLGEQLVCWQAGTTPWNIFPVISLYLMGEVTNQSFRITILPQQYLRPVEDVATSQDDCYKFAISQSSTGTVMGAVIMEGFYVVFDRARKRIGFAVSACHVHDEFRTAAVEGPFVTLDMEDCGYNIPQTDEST

OM99-1 (peptide) showed a Ki (recombinant memapsin 2 [1]) of 30 nM.

In the case of Pepstatin A (peptide), the IC50 (inhibition of enzyme activity) [2] is reported as 300000 nM.

B1: OM99-2 (peptide)
peptide: EVNLAAEF
modifications: also: Leu4-Ala5 peptide bond replaced by hydroxyethylene isostere -CH(OH)-CH2-
notes: Synthetic substrate analogue based on the beta-secretase site of Swedish mutant APP
For B1, the Ki (recombinant memapsin 2 [3]) was 10 nM.

Molecule VNLAAEF (also: Leu3-Ala4 bond replaced by hydroxyethylene isostere -CH(OH)-CH2-) [OM99-2 with P4 Glu absent] has a fold increase in Ki against OM99-2 (recombinant memapsin 2 [4]) of 10 fold.
